Experimental data published in patent US20180016312A1 (Pieris, published 2018).
Positions count from the first letter of the chain named. Blank lines part the entries; values can stand above or below the binder they belong to.

Tests used:
human angiopoietin-2 [1] = biological target: T1, human angiopoietin-2 (human, UniProt O15123 19-496, limits assumed); test: SPR Biacore T200; biotinylated SEQ ID NO: 16 captured, hAng-2 analyte
T1 construct: Bought recombinant protein with a His tag (detected by anti-HIS-tag antibody); also called human Ang-2; hAng-2
T1 sequence (looked up): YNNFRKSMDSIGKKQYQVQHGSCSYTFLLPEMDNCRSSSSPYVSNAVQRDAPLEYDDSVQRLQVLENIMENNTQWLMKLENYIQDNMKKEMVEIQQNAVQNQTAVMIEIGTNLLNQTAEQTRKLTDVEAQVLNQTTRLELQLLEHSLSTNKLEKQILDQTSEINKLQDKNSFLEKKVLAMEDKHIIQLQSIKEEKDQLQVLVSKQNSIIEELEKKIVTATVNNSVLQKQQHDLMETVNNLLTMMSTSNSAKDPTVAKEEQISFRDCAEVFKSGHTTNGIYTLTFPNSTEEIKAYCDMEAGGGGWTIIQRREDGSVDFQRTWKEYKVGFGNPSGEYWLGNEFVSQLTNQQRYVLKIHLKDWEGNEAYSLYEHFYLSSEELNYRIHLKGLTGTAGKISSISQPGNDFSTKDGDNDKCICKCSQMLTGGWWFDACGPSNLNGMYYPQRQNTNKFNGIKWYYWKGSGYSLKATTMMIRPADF
Protocol: (§1) In the SPR affinity assay, biotinylated muteins and negative control were captured on a sensor chip CAP using the Biotin CAPture Kit (GE Healthcare): Sensor Chip CAP is pre-immobilized with an ssDNA oligo. Undiluted Biotin CAPture Reagent (streptavidin conjugated with the complementary ss-DNA oligo) was applied at a flow rate of 2 μl/min for 300 s. Subsequently, 0.02 μg/mL of biotinylated muteins or negative control were applied for 300 s at a flow rate of 5 μl/min. […] The reference channel was loaded with Biotin CAPture Reagent only.
(§2) Applying a flow rate of 30 μL/min, a multi cycle kinetics approach was used with a sample contact time of 180 s and a dissociation time of 4600 s. All measurements were performed at 25° C. […] Data were evaluated with Biacore T200 Evaluation software (V 1.0). Double referencing was used. A 1:1 Binding model was used to fit the raw data even though the analyte was known to be a multimer.

human angiopoietin-2 [2] = biological target: T1, human angiopoietin-2; test: competition ELISA; 0.5 nM hAng-2 pre-incubated with binder, free hAng-2 captured on hTie-2 Fc (competitor)
Protocol: All incubation steps were performed with shaking at 300 rpm, and the plate was washed after each incubation step with 80 μl PBS-T buffer (PBS, 0.05% Tween 20) for five times using a Biotek EL405 select CW washer (Biotek). In the first step, a 384 well plate was directly coated with 20 μl of soluble human hTie-2 Fc (Reliatech) at a concentration of […] in PBS over night at 4 ° C. After washing, h Tie-2 Fc coated wells were blocked with 60 μl PBS-T/BSA (2% BSA in PBS containing 0.1% Tween 20) for 1 h at room temperature.
Curve fitting was performed using GraphPad Prism 4 software.

mouse angiopoietin-2 = biological target: T2, mouse angiopoietin-2 (mouse, UniProt O35608 19-496, limits assumed); test: competition cell ECL; mAng-2 pre-incubated with binder, free Ang-2 captured on HEK:hTie-2 cells (competitor)
T2 construct: Bought recombinant protein; also called mouse Ang-2; mAng-2
T2 sequence (looked up): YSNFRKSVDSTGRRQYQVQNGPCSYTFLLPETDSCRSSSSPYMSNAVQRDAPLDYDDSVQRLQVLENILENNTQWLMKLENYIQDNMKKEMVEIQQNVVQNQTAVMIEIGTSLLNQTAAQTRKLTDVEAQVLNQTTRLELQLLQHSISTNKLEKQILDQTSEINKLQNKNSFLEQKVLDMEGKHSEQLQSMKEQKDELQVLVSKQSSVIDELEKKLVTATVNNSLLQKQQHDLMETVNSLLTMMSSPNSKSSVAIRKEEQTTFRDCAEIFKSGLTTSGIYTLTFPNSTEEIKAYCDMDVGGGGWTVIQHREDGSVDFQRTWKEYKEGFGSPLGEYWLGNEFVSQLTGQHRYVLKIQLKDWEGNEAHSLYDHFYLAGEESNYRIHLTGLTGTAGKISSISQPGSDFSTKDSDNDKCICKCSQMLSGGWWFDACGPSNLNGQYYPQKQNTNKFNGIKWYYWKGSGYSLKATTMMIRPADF
Protocol: (§3) All incubation steps were performed at room temperature, and the plate was washed after each incubation step with 80 μl PBS buffer for two times using a Biotek EL405 select CW washer (Biotek). In the first step, a 384 well plate was precoated for 5 minutes with poly D lysine and washed twice with PBS. 10⁴ HEK:hTie-2 cells per well were seeded and allowed to adhere to the surface of the wells overnight at 37° C. . After washing, cell coated wells were blocked with 60 μl PBS/Casein (2% Casein in PBS) for 1 h at room temperature.
(§4) After washing, 35 μl surfactant-free reading buffer was added to each well and the ECL signal of every well was read using a Mesoscale Discovery reader.

human angiopoietin-2 [3] = biological target: T1, human angiopoietin-2; test: SPR Biacore T200; biotinylated mutein captured, hAng-2 analyte, 1:1 model, 25 C
Protocol: as §1, §2

human angiopoietin-2 [4] = biological target: T1, human angiopoietin-2; test: competition cell ECL; hAng-2 pre-incubated with binder, free Ang-2 captured on HEK:hTie-2 cells (competitor)
Protocol: as §3, §4

human angiopoietin-2 [5] = biological target: T1, human angiopoietin-2; test: SPR Biacore T200; upper end of the range, tied to SEQ ID NO: 7 by Table 3
Protocol: as §1, §2

human angiopoietin-2 [6] = biological target: T1, human angiopoietin-2; test: ELISA; Ang-2 coated, mutein detected by anti-Streptag-HRP
Protocol: Binding of muteins was tested by a sandwich ELISA assay.
20 μl of serially diluted muteins were incubated in PBS-T/BSA for 1h at room temperature (RT).
The residual supernatants were discarded and 20 μl HRP-labeled anti-Streptag antibody was added at a predetermined optimal concentration in PBS-T/BSA and incubated for 1 h at RT. After washing, 20 μl fluorogenic HRP substrate (QuantaBlu, Thermo) was added to each well, and the reaction was allowed to proceed for 15 to 60 minutes. The fluorescence intensity of every well on the plate was read using a fluorescence microplate reader (Tecan or Molecular Devices). Curve fitting was performed using GraphPad Prism 4 software.

human angiopoietin-1 = biological target: T3, human angiopoietin-1 (human, UniProt Q15389 20-498, limits assumed); test: competition ELISA format (FIG. 2)
T3 construct: Bought recombinant protein; also called human Ang-1; hAng-1
T3 sequence (looked up): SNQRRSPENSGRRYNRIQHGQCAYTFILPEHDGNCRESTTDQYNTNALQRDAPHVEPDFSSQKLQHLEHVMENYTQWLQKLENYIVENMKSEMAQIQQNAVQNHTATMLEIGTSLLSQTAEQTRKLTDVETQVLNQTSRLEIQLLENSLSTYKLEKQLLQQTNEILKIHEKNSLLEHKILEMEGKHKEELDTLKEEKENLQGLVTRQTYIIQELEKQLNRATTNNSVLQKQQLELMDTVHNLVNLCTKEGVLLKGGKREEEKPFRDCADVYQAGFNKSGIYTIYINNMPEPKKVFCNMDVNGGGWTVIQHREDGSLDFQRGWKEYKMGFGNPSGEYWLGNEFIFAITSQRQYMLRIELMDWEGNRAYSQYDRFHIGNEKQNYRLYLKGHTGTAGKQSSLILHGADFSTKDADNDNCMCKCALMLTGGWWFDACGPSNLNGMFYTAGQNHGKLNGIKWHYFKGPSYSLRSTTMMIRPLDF
Protocol: In the following detailed experimental protocol, incubation and washing steps were performed as described above in the competition ELISA protocol (see Example 5).

human angiopoietin-2 [7] = biological target: T1, human angiopoietin-2; test: cell-based or functional assay
human angiopoietin-2 [8] = biological target: T1, human angiopoietin-2; test: SPR Biacore T200; lower end of the range, tied to SEQ ID NO: 11 by Table 3
Protocol: as §1, §2

B1: mature hNGAL (SEQ ID NO: 16), negative control (other)
chain: QDSTSDLIPAPPLSKVPLQQNFQDNQFQGKWYVVGLAGNAILREDKDPQKMYATIYELKEDKSYNVTSVLFRKKKCDYWIRTFVPGCQPGEFTLGNIKSYPGLTSYLVRVVSTNYNQHAMVFFKKVSQNREYFKITLYGRTKELTSELKENFIRFSKSLGLPENHIVFPVPIDQCIDG
notes: Used as negative control; Biotinylated for the SPR assay; also called human lipocalin 2; human NGAL
- binding result (human angiopoietin-2 [1]): no binding (tested: human Ang-2 at 1-27 nM)

- IC50 (human angiopoietin-2 [2]): 0.0619 nM
- IC50 (mouse angiopoietin-2): 1.23 nM
- Kd (human angiopoietin-2 [3]): 1.43 nM
- koff (human angiopoietin-2 [3]): 0.00026 s⁻¹
- IC50 (human angiopoietin-2 [4]): 3.6 nM
- Kd (human angiopoietin-2 [5]): 0.2 to 1.4 nM
- EC50 (human angiopoietin-2 [6]): 2.1 nM
- binding result (human angiopoietin-1): binds
- IC50 mean, LEC proliferation assay (CellTiter-Glo) (human angiopoietin-2 [7]): 0.199 nM
B2: hNGAL lipocalin mutein SEQ ID NO: 7 (designed binder)
chain: QDSTSDLIPAPPLSKVPLQQNFQDNQFHGKWYVVGHAGNYILREDKDPEKMWATIYELKEDKSYDVTEVSFGPKKCNYRIWTFVPGSQPGEFTLGGIKSPPGDTSTLVRVVSTNYNQHAMVFFKHVLQNREFFEITLYGRTKELTSELKENFIRFSKSLGLPENHIVFPVPIDQCIDGSAWSHPQFEK
notes: Mutein of mature hNGAL; Biotinylated with NHS-PEG4-Biotin for the SPR assay

- IC50 (human angiopoietin-2 [2]): 0.0988 nM
- IC50 (mouse angiopoietin-2): 1.45 nM
- Kd (human angiopoietin-2 [3]): 0.21 nM
- koff (human angiopoietin-2 [3]): 0.00087 s⁻¹
- IC50 (human angiopoietin-2 [4]): 4.79 nM
- EC50 (human angiopoietin-2 [6]): 2.3 nM
- IC50 mean, LEC proliferation assay (CellTiter-Glo) (human angiopoietin-2 [7]): 0.169 nM
- Kd (human angiopoietin-2 [8]): 0.2 to 1.4 nM
B3: hNGAL lipocalin mutein SEQ ID NO: 11 (designed binder)
chain: B2 chain with H36Q, E49V, P100L, D103G
notes: as for B2

- IC50 (human angiopoietin-2 [2]): 0.0708 nM
- IC50 (mouse angiopoietin-2): 1.25 nM
- Kd (human angiopoietin-2 [3]): 0.37 nM
- koff (human angiopoietin-2 [3]): 0.00013 s⁻¹
- IC50 (human angiopoietin-2 [4]): 3.75 nM
- EC50 (human angiopoietin-2 [6]): 2.4 nM
- binding result (human angiopoietin-1): binds
- IC50 mean, LEC proliferation assay (CellTiter-Glo) (human angiopoietin-2 [7]): 0.078 nM
B4: hNGAL lipocalin mutein SEQ ID NO: 8 (designed binder)
chain: B2 chain with H36Q, E49G, P73A, P100D, D103G
notes: as for B2
